Biological target: sgk1_human SGK1 (UniProt O00141)
Sequence (O00141 whole entry): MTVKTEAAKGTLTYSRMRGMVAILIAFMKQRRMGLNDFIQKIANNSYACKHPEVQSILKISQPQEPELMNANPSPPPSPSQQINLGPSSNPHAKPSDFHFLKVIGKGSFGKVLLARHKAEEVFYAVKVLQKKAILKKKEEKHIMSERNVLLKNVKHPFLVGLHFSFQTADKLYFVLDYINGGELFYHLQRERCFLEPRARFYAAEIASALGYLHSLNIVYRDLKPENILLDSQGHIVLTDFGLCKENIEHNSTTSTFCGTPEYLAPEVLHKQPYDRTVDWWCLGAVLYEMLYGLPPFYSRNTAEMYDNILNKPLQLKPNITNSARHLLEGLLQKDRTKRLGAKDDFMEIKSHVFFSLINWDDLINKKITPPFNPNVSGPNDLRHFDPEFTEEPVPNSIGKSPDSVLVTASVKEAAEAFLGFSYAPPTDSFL

Serine/threonine-protein kinase WNK4 (Mus musculus), Q80UE6 S1169D
effect of a mutation on the interaction: decreasing interaction strength

Serine/threonine-protein kinase WNK4 (Mus musculus), Q80UE6 Q562E
effect of a mutation on the interaction: decreasing interaction strength

Source: IntAct's records for PubMed 17360471
